Measurements from paper PMC7322011.

Assay: plasma membrane level, fixed-cell imaging
Settings: glycan lost; control: wild type

B1: peripheral myelin protein 22 (PMP22): N41Q (protein)
parent chain: MLLLLLSIIVLHVAVLVLLFVSTIVSQWIVGNGHATDLWQNCSTSSSGNVHHCFSSSPNEWLQSVQATMILSIIFSILSLFLFFCQLFTLTKGGRFYITGIFQILAGLCVMSAAAIYTVRHPEWHLNSDYSYGFAYILAWVAFPLALLSGVIYVILRKRE
  localisation_or_trafficking: increases
